Test results from PMC9019090.

Biological target: FBXW7 (FBXW7α) (UniProt Q969H0)
Test: Co-IP and reciprocal co-IP, immunoblot
Conditions: reference: Flag-ERRα wild type; sites S19,S22,S26

binding against the reference: weaker
Substance: ERRα (from UniProt P11474) Flag-ERRα 3SA (S19A+S22A+S26A)
